Data on 31 sequences can be found in the supplement of paper PMC9170038.

In the series the test system is MS2 coat protein. Briefly: apparent KD of MS2 coat protein; designed switch direction (-1 OFF switch, 1 ON switch): -1; higher = weaker reporter binding. In outline: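 Stalled E. coli RNA polymerase transcribed designed RNA switches on Illumina chips, which were then titrated with SNAP-549-labelled MS2 coat protein, doubling from 0.7 or 1.5 nM to 3 µM. Steps lasted from 0.8–1.5 h at the lowest concentration to 10–20 min at the highest. The apparent KD is each design's median over clusters of curve-fitted normalised fluorescence.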

Where [1] appears, read: Eterna round: R95, input ligand: microRNA oligo, concentration not stated.
Where [2] appears, read: input ligand: microRNA oligo, concentration not stated.
The mark [3] stands for this setting: Eterna round: R95, input ligand: FMN 200 uM.
[4] abbreviates: Eterna round: R95, input ligand: none.

“GCUGGACGAGGAUAUGCAAUCGUGCUUCGGCACGUAAGGUCACAUGAGGAUCACCCAUGUAGAAGGUGUCCAGC [E2/4-B2] (Eterna round: R97, puzzle: Exclusion 2)”: the “apparent KD of MS2 coat protein” value was found to be 31.1 nM (input ligand: FMN 200 uM) and 20.5 nM (input ligand: none).
As for “GGUCUUCAAGUCAGGAUAUCGUCUAAUCGGUCUGGCGAGAAGGGACAUGAGGAUCACCCAUGUCGUCUCAUCAG [Ex4 #15] (Eterna round: R97, puzzle: Brourd's mod of Exclusion 4)”, the “apparent KD of MS2 coat protein” value is 27.1 nM (input ligand: FMN 200 uM) and 20.4 nM (input ligand: none).
Take “AAGAAACAUGAGGAUCACCCAUGUGAGGAUAUGACCCGCCCGGCGUAAGCAAAAUAAAUCAGAAGGCACAAAGG [salish99_ex1_r4_007] (Eterna round: R97, puzzle: Exclusion 1)”: the “apparent KD of MS2 coat protein” value is, setting by setting: (input ligand: FMN 200 uM) 35.5 nM; (input ligand: none) 37.3 nM.
“AUAAUGUCAGGAUAUCAGUCGUACAGCGAUAGCUGUACGACUGAGAAGGGACAUGAGGAUCACCCAUGUGGUUA [E4/7-A4] (Eterna round: R97, puzzle: Exclusion 4)”: the “apparent KD of MS2 coat protein” value is, setting by setting: (input ligand: FMN 200 uM) 169 nM; (input ligand: none) 1910 nM.
Regarding “CCUCAGUAAGGAUAUCAGCUUAGUAGGUUGGUAAUGAGAGCUGAGAAGGUACAUGAGGAUCACCCAUGUUAGUU [JL Zatite mod 10] (puzzle: Exclusion 4)”, under setting [1], the “apparent KD of MS2 coat protein” value was 28.8 nM.
As to “AUCAGCUCGUCAGGAUAUACAUCACUGCUUCGGCAGUGUAUUAAGAUCACAUGAGGAUCACCCAUGUAGAAGGGACGAGCUGAU [ENG2/2-B3] (Eterna round: R96, puzzle: Exclusion NG 2)”, the “apparent KD of MS2 coat protein” value reads like this: (input ligand: FMN 200 uM) 342 nM; under setting [2], 18.2 nM; (input ligand: none) 25.3 nM.
Take “AAGAAGCUGAGAGGAUAUGGAGCCGAAACGGAGCUAGAAGGCUUUGCAGAAAGACAUGAGGAUCACCCAUGUUCAUGUAGAGAA [AK ExNG1-1.3] (Eterna round: R96, puzzle: Exclusion NG 1)”: the “apparent KD of MS2 coat protein” value by setting is: (input ligand: FMN 200 uM) 15.2 nM; under setting [2], 12.6 nM; (input ligand: none) 18.4 nM.
For “UCUGUUGAAGGAUAUGCGUAACGAGUUACGGCUCGAGGUCUACAUGAGGAUCACCCAUGUAGAAGGUCAUCAGA [EX2 #70] (Eterna round: R97, puzzle: Exclusion 2)”, the “apparent KD of MS2 coat protein” value (input ligand: FMN 200 uM) was 15.8 nM and the “apparent KD of MS2 coat protein” value (input ligand: none) stood at 15.1 nM.
Take “AAAAAGGUAGGAUAUACGAAAAAAAAGGGUAGAAAAAAAACACAUGAGGAUCACCCAUGUAGAAGGACCAAAAU [salish99_ex2_r3_044] (puzzle: Exclusion 2)”: the “apparent KD of MS2 coat protein” value came out at 82.8 nM under setting [3], 35.3 nM under setting [1] and 36.6 nM under setting [4].
Turning to “CUUAGACAUGAGGAUCACCCAUGUGAGGAUAUGAAAUUAAUUAAUUAUUAAUUAUGAAUCAGAAGGCACAUAUG [Mat - Mod of Hyphema D37] (puzzle: Exclusion 1)”, the “apparent KD of MS2 coat protein” value is 121 nM under setting [3], 47.9 nM under setting [1] and 50.9 nM under setting [4].
Turning to “UUGACGGCAGGAUAUACAUGAGGAUCACCCAUGUAAAUUUUUCGUUUAACUUGAAUGUGUAGAAGGGCCAUGUU [Ex3 #72] (Eterna round: R97, puzzle: Exclusion 3)”, the “apparent KD of MS2 coat protein” value (input ligand: FMN 200 uM) was determined as 18.2 nM and the “apparent KD of MS2 coat protein” value (input ligand: none) amounted to 19 nM.
As to “UUAUGUAAUGUAGGAUAUCGGUCAGUUUCUGAUCGAGAAGGACAUGAGGAUCACCCAUGUAAGGCUACCGGUUUCUGGUGGCCU [JL ENG1 3.51] (Eterna round: R96, puzzle: Exclusion NG 1)”, the “apparent KD of MS2 coat protein” value (input ligand: FMN 200 uM) is 137 nM, the “apparent KD of MS2 coat protein” value under setting [2] is 20.7 nM and the “apparent KD of MS2 coat protein” value (input ligand: none) was determined as 28.5 nM.
As to “GUCACUAGAGGAUAUACAAUGGUAUAUGAUCCUAGAGACAUACAUGAGGAUCACCCAUGUAGAAGGCUAGUAUU [Exclusion 2 - 5] (Eterna round: R96, puzzle: Exclusion 2)”, the “apparent KD of MS2 coat protein” value amounted to 52.9 nM (input ligand: FMN 200 uM), 53.1 nM under setting [2] and 52.5 nM (input ligand: none).
Regarding “GGUACUAACACGAAAGUGUUAGUACAAUAAGCUUGUGUUACAUGAGGAUCACCCAUGUCCUCAUAAGCUCGUCUUAU [Mat - Sensor v3 - Turn-off var 2 - D52] (puzzle: Sensor v3, turn-off variant 2)”, the “apparent KD of MS2 coat protein” value reads like this: under setting [3], 112 nM; under setting [1], 38.8 nM; under setting [4], 126 nM.
Consider “CUUUAGUGAGGAUAUCAGUAGUAAUACAAUAGUAUUACUGCUGAGAAGGCACAUGAGGAUCACCCAUGUUCCUC [Mat - Exclusion 4 - Mod of Omei - D83] (puzzle: Exclusion 4)”, for which the “apparent KD of MS2 coat protein” value under setting [1] was found to be 33.1 nM.
For “AGUGUGUUAGGAUAUCGGAUAUGCUGGAGGAGGUGGAUUUACGAGAAGGAACAUGAGGAUCACCCAUGUAGGAG [JR_Exclu4_Sub048] (puzzle: Exclusion 4)”, the “apparent KD of MS2 coat protein” value under setting [1] was determined as 36.2 nM.
For “UUCUUACGAGGAUAUCGAUUGUGGUACAUGAGGAUCACCCAUGUAUGUGAUAUUGUAUUUCGAGAAGGCGUUCAGU [JR_E5_Sub059] (puzzle: Exclusion 5)”, under setting [1], the “apparent KD of MS2 coat protein” value worked out at 25.2 nM.
On to “AGUCCUAACACGAAAGUGUUAGUACAAUAAGCUUGUGAAACAUGAGGAUCACCCAUGUCCUCAUAAGCUCGUCUUAU [salish99_TOv2_r3_015] (puzzle: Sensor v3, turn-off variant 2)”, for which the “apparent KD of MS2 coat protein” value runs as follows: under setting [3], 16.6 nM; under setting [1], 896 nM; under setting [4], 16.9 nM.
For “AGGUGUAGAGGAUAUCCAUCCUCCCACAUGAGGAUCACCCAUGUCCUGGUCACCAAGGACGGAGAAGGCUACACCA [Omei Ex5 D21] (Eterna round: R97, puzzle: Exclusion 5)”, the “apparent KD of MS2 coat protein” value runs as follows: (input ligand: FMN 200 uM) 108 nM; (input ligand: none) 142 nM.
“AACAAACAUGAGGAUCACCCAUGUCAGGAUAUGCACAAACAAACAAACAAACAAGCAAGCAGAAGGGACACAAC [Amethyst 89] (Eterna round: R96, puzzle: Exclusion 1)”: the “apparent KD of MS2 coat protein” value reads like this: (input ligand: FMN 200 uM) 34.7 nM; under setting [2], 22.4 nM; (input ligand: none) 24.8 nM.
Turning to “CGGGCCGGCCUUCCGGCCGGCCCGACAUGAGGAUCACCCAUGUAGGAUAUCCCGGCUGCCGGCCGGGAGAAGGGCGUGCGUCCC [-49.5, -48.5 kcal, 14% A] (Eterna round: R96, puzzle: Exclusion NG 3)”, the “apparent KD of MS2 coat protein” value runs as follows: (input ligand: FMN 200 uM) 39.8 nM; under setting [2], 27.6 nM; (input ligand: none) 33.5 nM.
For “GGAUAAAACUGAGGAUAUGCGGAGAGAGAGAGAGCAGAAGGCAGACAUGAGGAUCACCCAUGUGAGUUCUCGAUAAGAAACACG [Prohibition 57 - Jieux - Exclusion NG 1] (Eterna round: R96, puzzle: Exclusion NG 1)”, in that order: 107 nM, 24 nM and 31.8 nM.
In the case of “GAUUGAGAGCAGGAUAUAUUCCUGAUGUAUGAAGUAGAAGGGCUCACAUGAGGAUCACCCAUGUGAUCCUGAAA [Mat - Exclusion 6 - Eli Mod - D3] (Eterna round: R97, puzzle: Exclusion 6)”, the “apparent KD of MS2 coat protein” value by setting is: (input ligand: FMN 200 uM) 13.8 nM; (input ligand: none) 14 nM.
In the case of “UAUGUUUUUGUGAGGAUAUACUUUGUUUGGUCGUAGUAGAAGGCACAUGAGGAUCACCCAUGUAGAUUUUUGGU [JR_BME4_Sub010] (puzzle: Brourd's mod of Exclusion 4)”, under setting [1], the “apparent KD of MS2 coat protein” value was 22.9 nM.
Consider “UGAUCAGACCGAGGAUAUACAUGUAGGACCCACGUGAGUGGGUCCAGUACAUGAGGAUCACCCAUGUAGAAGGCGGUCUGAUCU [JL ENG2 1.89] (Eterna round: R96, puzzle: Exclusion NG 2)”, for which the “apparent KD of MS2 coat protein” value was found to be 241 nM (input ligand: FMN 200 uM), 70.6 nM under setting [2] and 94.6 nM (input ligand: none).
In the case of “ACAAGCUAUCUCUUAUCUUACAUGAGGAUCACCCAUGUUUUUUCAAUUUUGUUUGGUCUCCUUUGUGCUCGUCUUAU [JR_STOV1_Sub053] (Eterna round: R97, puzzle: Sensor, turn-off variant 1)”, the “apparent KD of MS2 coat protein” value reads like this: (input ligand: FMN 200 uM) 53.2 nM; (input ligand: none) 55.2 nM.
On to “GGAGUCUUAGGAUAUACAGGUGUGAACAUCCGACGUUUCCAACAUGAGGAUCACCCAUGUAGAAGGAAGACGAG [Eternabot (Original) Solution 5] (Eterna round: R97, puzzle: Exclusion 2)”, for which the “apparent KD of MS2 coat protein” value turned out to be 824 nM (input ligand: FMN 200 uM) and 783 nM (input ligand: none).
As for “ACAUGAGGAUCACCCAUGUGAAAAGAAUGGCUGACACAGAGAUAGGAUAUAUGUGCAUAUCAAACAUAGAAGGGUCAUAACUGG [Deportation 84 - Jieux - Exclusion NG 3] (Eterna round: R96, puzzle: Exclusion NG 3)”, the “apparent KD of MS2 coat protein” value (input ligand: FMN 200 uM) amounted to 28.4 nM, the “apparent KD of MS2 coat protein” value under setting [2] amounted to 29.4 nM and the “apparent KD of MS2 coat protein” value (input ligand: none) amounted to 30.5 nM.
On to “AACAGUCUAGAGGAUAUGUUGGAUUAAUAUCUGGCAGAAGGCUGGACAUGAGGAUCACCCAUGUAAAUACUACC [Omei Ex6 A14] (Eterna round: R97, puzzle: Exclusion 6)”, for which the “apparent KD of MS2 coat protein” value was found to be 98.7 nM (input ligand: FMN 200 uM) and 34.4 nM (input ligand: none).
Turning to “UUUUAGAGAGGAUAUAUAAUGUGAAACAUGAGGAUCACCCAUGUAAUAUUAUGGAUGUAAAUAGAAGGCUCAUUUA [JL-ex5-3.04] (puzzle: Exclusion 5)”, the “apparent KD of MS2 coat protein” value under setting [3] is 31.9 nM, the “apparent KD of MS2 coat protein” value under setting [1] stood at 36.1 nM and the “apparent KD of MS2 coat protein” value under setting [4] was found to be 35.1 nM.
For the sequence “CACAAGCUUUUUUGAUGCAUUUUAGUUGGUGUGCUUUUUACAUGAGGAUCACCCAUGUUUAUGAAGCUCGAUCUUUU [JR_SV3TOV2_Sub080] (puzzle: Sensor v3, turn-off variant 2)”, the “apparent KD of MS2 coat protein” value reads like this: under setting [3], 14 nM; under setting [1], 15 nM; under setting [4], 12.8 nM.
